{"source": "patent US20260184748A1", "about": "(University of Pennsylvania, published 2026)", "assay_in_all_cases": "cell-based or functional assay", "key": {"MC3R": {"molecular_target": "MC3R (UniProt P41968 1-323)", "sequence (P41968 whole entry)": "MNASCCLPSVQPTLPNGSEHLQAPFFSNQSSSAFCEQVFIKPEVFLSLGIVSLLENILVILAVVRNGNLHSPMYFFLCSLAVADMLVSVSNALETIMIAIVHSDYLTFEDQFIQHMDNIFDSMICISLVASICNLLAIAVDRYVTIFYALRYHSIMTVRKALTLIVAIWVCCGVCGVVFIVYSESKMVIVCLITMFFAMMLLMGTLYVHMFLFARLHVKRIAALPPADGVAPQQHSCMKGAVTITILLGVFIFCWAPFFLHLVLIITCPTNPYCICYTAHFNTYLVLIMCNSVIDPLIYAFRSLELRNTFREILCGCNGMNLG"}, "MCHR2": {"molecular_target": "MCHR2 (UniProt Q969V1 1-340)", "sequence (Q969V1 whole entry)": "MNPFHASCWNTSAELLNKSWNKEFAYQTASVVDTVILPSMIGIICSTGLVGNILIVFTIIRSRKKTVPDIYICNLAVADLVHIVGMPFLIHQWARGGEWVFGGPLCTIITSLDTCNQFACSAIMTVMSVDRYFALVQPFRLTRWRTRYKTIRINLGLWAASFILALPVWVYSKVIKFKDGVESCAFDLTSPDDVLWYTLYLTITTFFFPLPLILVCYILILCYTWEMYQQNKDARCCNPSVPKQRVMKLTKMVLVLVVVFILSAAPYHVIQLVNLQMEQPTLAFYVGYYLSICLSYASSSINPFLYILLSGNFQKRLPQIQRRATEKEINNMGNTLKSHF"}, "P2RY4": {"molecular_target": "P2RY4 (UniProt P51582 1-365)", "sequence (P51582 whole entry)": "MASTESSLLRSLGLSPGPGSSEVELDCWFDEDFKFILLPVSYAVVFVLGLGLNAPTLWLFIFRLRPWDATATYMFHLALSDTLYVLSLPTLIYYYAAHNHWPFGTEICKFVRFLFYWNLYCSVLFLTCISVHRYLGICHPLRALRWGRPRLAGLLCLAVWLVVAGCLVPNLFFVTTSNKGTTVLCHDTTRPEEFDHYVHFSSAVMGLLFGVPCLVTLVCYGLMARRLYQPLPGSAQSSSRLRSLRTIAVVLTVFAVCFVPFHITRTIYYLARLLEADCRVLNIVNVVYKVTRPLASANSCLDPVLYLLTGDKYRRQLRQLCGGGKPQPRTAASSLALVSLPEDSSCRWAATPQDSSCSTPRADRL"}, "[1]": {"molecular_target": "T1, relaxin-3 receptor (RXFP3) (UniProt Q9NSD7 1-469)", "T1 sequence (looked up)": "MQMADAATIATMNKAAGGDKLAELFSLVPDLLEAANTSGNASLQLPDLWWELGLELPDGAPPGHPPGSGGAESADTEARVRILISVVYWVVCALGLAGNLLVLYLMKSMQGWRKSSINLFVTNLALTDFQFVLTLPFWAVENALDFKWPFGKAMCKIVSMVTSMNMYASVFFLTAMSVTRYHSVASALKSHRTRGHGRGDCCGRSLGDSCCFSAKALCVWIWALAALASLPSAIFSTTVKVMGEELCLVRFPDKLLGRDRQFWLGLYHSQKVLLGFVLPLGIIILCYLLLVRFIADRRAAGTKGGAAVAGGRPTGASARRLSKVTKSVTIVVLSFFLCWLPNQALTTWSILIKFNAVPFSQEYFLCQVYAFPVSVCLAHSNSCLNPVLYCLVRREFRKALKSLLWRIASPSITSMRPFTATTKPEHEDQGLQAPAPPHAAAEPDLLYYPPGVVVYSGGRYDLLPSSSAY"}, "SCTR": {"molecular_target": "SCTR (UniProt P47872 23-440)", "sequence (P47872 23-440 limits assumed)": "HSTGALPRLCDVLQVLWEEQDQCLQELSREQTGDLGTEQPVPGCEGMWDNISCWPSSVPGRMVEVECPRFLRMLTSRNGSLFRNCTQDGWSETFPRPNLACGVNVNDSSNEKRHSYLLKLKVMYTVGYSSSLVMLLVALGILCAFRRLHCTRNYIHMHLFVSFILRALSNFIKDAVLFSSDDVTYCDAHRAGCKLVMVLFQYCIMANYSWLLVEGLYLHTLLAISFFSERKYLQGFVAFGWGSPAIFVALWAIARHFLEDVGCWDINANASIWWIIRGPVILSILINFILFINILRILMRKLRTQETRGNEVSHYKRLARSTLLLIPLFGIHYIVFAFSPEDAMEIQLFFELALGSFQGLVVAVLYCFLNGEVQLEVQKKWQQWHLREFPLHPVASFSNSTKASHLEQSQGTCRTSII"}, "VIPR2": {"molecular_target": "T2, VIPR2 (UniProt P41587 24-438)", "T2 sequence (looked up)": "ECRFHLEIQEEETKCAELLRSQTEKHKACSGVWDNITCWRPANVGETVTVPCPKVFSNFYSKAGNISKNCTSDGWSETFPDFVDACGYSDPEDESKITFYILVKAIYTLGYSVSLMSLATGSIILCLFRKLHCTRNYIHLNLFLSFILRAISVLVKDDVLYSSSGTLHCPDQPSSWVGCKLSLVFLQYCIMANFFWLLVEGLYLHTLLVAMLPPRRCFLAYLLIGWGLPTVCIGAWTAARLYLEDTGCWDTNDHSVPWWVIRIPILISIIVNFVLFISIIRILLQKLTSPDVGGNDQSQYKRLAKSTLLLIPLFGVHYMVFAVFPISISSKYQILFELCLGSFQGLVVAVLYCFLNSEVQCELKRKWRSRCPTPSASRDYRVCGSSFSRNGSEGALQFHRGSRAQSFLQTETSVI"}, "CALCRL-RAMP3": {"molecular_target": "CALCRL-RAMP3 (UniProt Q16602 23-461; O60896 24-148)", "sequence (Q16602 23-461 limits assumed, chain 1 of 2)": "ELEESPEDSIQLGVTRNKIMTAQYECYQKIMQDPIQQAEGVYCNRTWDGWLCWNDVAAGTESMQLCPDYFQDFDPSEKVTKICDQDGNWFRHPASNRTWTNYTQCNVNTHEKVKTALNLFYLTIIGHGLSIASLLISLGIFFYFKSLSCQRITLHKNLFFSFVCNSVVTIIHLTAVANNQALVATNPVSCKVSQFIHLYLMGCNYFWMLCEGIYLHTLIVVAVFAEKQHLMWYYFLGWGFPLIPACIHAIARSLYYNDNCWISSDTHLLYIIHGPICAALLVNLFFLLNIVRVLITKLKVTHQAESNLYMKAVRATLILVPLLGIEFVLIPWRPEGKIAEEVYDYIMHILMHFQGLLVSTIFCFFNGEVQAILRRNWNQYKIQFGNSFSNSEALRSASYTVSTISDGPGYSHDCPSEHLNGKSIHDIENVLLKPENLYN", "sequence (O60896 24-148 limits assumed, chain 2 of 2)": "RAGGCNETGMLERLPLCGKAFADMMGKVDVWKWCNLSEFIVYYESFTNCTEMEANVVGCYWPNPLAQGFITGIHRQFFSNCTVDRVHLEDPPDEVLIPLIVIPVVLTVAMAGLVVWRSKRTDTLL"}, "CCR5": {"molecular_target": "CCR5 (UniProt P51681 1-352)", "sequence (P51681 whole entry)": "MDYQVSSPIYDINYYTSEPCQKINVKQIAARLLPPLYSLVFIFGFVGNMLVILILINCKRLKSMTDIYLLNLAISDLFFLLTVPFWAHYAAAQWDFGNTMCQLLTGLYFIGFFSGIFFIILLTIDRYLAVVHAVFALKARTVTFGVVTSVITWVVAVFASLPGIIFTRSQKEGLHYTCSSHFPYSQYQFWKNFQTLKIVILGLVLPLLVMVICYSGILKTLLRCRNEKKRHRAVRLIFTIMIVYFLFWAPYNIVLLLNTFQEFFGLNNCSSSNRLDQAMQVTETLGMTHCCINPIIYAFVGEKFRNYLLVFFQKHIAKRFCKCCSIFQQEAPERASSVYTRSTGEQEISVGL"}, "CHRM2": {"molecular_target": "T3, CHRM2 (UniProt P08172 1-466)", "T3 sequence (looked up)": "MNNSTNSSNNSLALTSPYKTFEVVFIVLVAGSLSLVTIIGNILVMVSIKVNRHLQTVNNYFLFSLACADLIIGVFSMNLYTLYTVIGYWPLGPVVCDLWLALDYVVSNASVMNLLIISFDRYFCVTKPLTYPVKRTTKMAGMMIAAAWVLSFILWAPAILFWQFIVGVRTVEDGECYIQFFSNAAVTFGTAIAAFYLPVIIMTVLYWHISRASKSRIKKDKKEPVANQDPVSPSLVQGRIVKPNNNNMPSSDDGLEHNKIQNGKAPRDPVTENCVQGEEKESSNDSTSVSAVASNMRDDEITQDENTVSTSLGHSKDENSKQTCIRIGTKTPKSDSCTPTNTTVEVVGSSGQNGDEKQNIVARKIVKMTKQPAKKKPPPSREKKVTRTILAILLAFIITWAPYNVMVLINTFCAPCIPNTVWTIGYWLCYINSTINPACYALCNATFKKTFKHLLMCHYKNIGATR"}, "CHRM5": {"molecular_target": "T4, CHRM5 (UniProt P08912 1-532)", "T4 sequence (looked up)": "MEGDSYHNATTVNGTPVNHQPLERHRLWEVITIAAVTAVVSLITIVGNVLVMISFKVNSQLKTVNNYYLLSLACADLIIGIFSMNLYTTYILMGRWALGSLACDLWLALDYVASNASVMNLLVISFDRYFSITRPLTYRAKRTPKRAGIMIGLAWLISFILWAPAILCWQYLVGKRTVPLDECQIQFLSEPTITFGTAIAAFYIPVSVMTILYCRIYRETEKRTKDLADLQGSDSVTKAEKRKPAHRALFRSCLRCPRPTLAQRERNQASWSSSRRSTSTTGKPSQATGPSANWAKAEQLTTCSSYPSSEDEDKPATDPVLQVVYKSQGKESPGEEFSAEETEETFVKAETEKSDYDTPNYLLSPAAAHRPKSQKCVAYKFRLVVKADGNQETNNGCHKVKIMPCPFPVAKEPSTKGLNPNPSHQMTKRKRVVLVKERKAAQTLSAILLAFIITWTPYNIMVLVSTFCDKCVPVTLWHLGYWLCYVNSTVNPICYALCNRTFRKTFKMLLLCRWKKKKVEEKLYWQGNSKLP"}, "EDG4": {"molecular_target": "EDG4 (UniProt Q9HBW0 1-348)", "sequence (Q9HBW0 whole entry)": "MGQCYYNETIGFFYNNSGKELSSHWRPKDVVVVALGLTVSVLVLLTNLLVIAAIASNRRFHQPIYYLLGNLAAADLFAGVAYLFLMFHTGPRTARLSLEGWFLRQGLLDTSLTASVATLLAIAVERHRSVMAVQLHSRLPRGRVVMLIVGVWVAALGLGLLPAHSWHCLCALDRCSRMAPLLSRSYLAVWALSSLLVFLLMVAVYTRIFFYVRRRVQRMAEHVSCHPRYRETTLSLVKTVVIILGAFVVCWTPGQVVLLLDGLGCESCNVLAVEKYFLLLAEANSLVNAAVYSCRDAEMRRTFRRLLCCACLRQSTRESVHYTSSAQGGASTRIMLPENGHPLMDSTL"}, "EDG5": {"molecular_target": "EDG5 (UniProt O95136 1-353)", "sequence (O95136 whole entry)": "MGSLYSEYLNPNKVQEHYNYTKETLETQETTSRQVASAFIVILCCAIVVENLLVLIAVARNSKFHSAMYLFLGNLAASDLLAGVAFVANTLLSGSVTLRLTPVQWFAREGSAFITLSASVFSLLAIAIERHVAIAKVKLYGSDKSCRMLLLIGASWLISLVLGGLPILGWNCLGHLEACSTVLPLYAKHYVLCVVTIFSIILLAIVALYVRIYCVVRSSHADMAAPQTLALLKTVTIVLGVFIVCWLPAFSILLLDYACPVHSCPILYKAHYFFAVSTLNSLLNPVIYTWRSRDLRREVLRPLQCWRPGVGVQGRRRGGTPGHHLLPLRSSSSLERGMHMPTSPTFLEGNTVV"}, "GHSR": {"molecular_target": "GHSR (UniProt Q92847 1-366)", "sequence (Q92847 whole entry)": "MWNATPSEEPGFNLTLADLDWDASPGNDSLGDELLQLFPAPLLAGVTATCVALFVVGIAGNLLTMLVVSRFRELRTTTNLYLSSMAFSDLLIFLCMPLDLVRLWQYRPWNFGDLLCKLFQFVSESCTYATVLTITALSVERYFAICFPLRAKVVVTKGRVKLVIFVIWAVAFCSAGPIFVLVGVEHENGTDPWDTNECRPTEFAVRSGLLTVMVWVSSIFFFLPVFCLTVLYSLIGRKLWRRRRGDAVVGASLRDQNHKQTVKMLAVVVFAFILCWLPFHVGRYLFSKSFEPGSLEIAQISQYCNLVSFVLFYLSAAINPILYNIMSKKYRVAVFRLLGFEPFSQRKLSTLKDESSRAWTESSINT"}, "GPR119": {"molecular_target": "T5, GPR119 (UniProt Q8TDV5 1-335)", "T5 sequence (looked up)": "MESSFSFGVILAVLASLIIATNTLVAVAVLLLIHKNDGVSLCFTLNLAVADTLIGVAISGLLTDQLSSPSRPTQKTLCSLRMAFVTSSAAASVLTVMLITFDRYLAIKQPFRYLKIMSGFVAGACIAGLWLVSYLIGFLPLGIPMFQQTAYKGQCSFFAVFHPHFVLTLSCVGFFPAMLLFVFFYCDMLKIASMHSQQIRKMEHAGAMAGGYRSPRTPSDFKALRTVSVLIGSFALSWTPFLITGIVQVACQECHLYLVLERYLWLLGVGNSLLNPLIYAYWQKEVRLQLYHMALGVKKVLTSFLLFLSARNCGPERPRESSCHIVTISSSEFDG"}, "GPR92": {"molecular_target": "GPR92 (UniProt Q9H1C0 1-372)", "sequence (Q9H1C0 whole entry)": "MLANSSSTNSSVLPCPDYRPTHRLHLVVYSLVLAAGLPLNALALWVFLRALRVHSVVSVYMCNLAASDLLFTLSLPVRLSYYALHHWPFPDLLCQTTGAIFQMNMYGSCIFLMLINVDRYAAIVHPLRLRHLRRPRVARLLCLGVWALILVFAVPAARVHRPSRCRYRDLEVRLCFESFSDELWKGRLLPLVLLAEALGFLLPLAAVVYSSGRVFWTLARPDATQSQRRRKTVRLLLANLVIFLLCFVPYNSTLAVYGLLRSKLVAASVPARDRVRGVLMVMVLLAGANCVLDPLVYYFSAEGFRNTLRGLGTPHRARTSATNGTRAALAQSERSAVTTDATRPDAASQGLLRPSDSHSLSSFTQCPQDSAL"}}, "note": "Where no end group is shown, it is not given here."}
{"binder": "QATVGDVNTDRPGLLDLK (also: synthesised on Rink amide resin, C-terminal amide not given here outright)", "note": "[octadecaneuropeptide (ODN)]", "values": [{"measurement": "% Activity, arrestin, antagonist mode, 2.5 uM", "setting": "MC3R", "result": -2.1, "unit": "%"}, {"measurement": "% Activity, arrestin, antagonist mode, 2.5 uM", "setting": "MCHR2", "result": -10.5, "unit": "%"}, {"measurement": "% Activity, arrestin, antagonist mode, 2.5 uM", "setting": "P2RY4", "result": 12.9, "unit": "%"}, {"measurement": "% Activity, arrestin, antagonist mode, 2.5 uM", "setting": "[1]", "result": 31.4, "unit": "%"}, {"measurement": "% Activity, arrestin, antagonist mode, 2.5 uM", "setting": "SCTR", "result": 7.7, "unit": "%"}, {"measurement": "% Activity, arrestin, antagonist mode, 2.5 uM", "setting": "VIPR2", "result": -6.7, "unit": "%"}, {"measurement": "% Activity, arrestin, antagonist mode, 2.5 uM", "setting": "CALCRL-RAMP3", "result": -3.5, "unit": "%"}, {"measurement": "% Activity, arrestin, antagonist mode, 2.5 uM", "setting": "CCR5", "result": -16.1, "unit": "%"}, {"measurement": "% Activity, arrestin, antagonist mode, 2.5 uM", "setting": "CHRM2", "result": 3.3, "unit": "%"}, {"measurement": "% Activity, arrestin, antagonist mode, 2.5 uM", "setting": "CHRM5", "result": -1.5, "unit": "%"}, {"measurement": "% Activity, arrestin, antagonist mode, 2.5 uM", "setting": "EDG4", "result": 4.6, "unit": "%"}, {"measurement": "% Activity, arrestin, antagonist mode, 2.5 uM", "setting": "EDG5", "result": -11.2, "unit": "%"}, {"measurement": "% Activity, arrestin, antagonist mode, 2.5 uM", "setting": "GHSR", "result": -7.4, "unit": "%"}, {"measurement": "% Activity, arrestin, antagonist mode, 2.5 uM", "setting": "GPR119", "result": -1, "unit": "%"}, {"measurement": "% Activity, arrestin, antagonist mode, 2.5 uM", "setting": "GPR92", "result": 10.6, "unit": "%"}]}
